Source: PMC3044157, “The Nuclear Guanine Nucleotide Exchange Factors Ect2 and Net1 Regulate RhoB-Mediated Cell Death after DNA Damage” (PLoS ONE, 2011)

B1: epithelial cell transforming sequence 2 (Ect2) (natural protein, human (endogenous in MCF-7 and HeLa), UniProt Q9H8V3 1-914, looked up)
chain: MAENSVLTSTTGRTSLADSSIFDSKVTEISKENLLIGSTSYVEEEMPQIETRVILVQEAGKQEELIKALKTIKIMEVPVIKIKESCPGKSDEKLIKSVINMDIKVGFVKMESVEEFEGLDSPEFENVFVVTDFQDSVFNDLYKADCRVIGPPVVLNCSQKGEPLPFSCRPLYCTSMMNLVLCFTGFRKKEELVRLVTLVHHMGGVIRKDFNSKVTHLVANCTQGEKFRVAVSLGTPIMKPEWIYKAWERRNEQDFYAAVDDFRNEFKVPPFQDCILSFLGFSDEEKTNMEEMTEMQGGKYLPLGDERCTHLVVEENIVKDLPFEPSKKLYVVKQEWFWGSIQMDARAGETMYLYEKANTPELKKSVSMLSLNTPNSNRKRRRLKETLAQLSRETDVSPFPPRKRPSAEHSLSIGSLLDISNTPESSINYGDTPKSCTKSSKSSTPVPSKQSARWQVAKELYQTESNYVNILATIIQLFQVPLEEEGQRGGPILAPEEIKTIFGSIPDIFDVHTKIKDDLEDLIVNWDESKSIGDIFLKYSKDLVKTYPPFVNFFEMSKETIIKCEKQKPRFHAFLKINQAKPECGRQSLVELLIRPVQRLPSVALLLNDLKKHTADENPDKSTLEKAIGSLKEVMTHINEDKRKTEAQKQIFDVVYEVDGCPANLLSSHRSLVQRVETISLGEHPCDRGEQVTLFLFNDCLEIARKRHKVIGTFRSPHGQTRPPASLKHIHLMPLSQIKKVLDIRETEDCHNAFALLVRPPTEQANVLLSFQMTSDELPKENWLKMLCRHVANTICKADAENLIYTADPESFEVNTKDMDSTLSRASRAIKKTSKKVTRAFSFSKTPKRALRRALMTSHGSVEGRSPSSNDKHVMSRLSSTSSLAGIPSPSLVSLPSFFERRSHTLSRSTTHLI
notes: Ect2, nuclear guanine nucleotide exchange factor, endogenous in human cancer cell lines, detected by immunoblot (sc-1005); source: endogenous, MCF-7 lysate; endogenous, HeLa lysate
B2: neuroepithelial transforming gene 1 (Net1) (natural protein, human (endogenous in MCF-7 and HeLa), UniProt Q7Z628 1-596, looked up)
chain: MEPELAAQKQPRPRRRSRRASGLSTEGATGPSADTSGSELDGRCSLRRGSSFTFLTPGPNWDFTLKRKRREKDDDVVSLSSLDLKEPSNKRVRPLARVTSLANLISPVRNGAVRRFGQTIQSFTLRGDHRSPASAQKFSSRSTVPTPAKRRSSALWSEMLDITMKESLTTREIRRQEAIYEMSRGEQDLIEDLKLARKAYHDPMLKLSIMSEEELTHIFGDLDSYIPLHEDLLTRIGEATKPDGTVEQIGHILVSWLPRLNAYRGYCSNQLAAKALLDQKKQDPRVQDFLQRCLESPFSRKLDLWSFLDIPRSRLVKYPLLLKEILKHTPKEHPDVQLLEDAILIIQGVLSDINLKKGESECQYYIDKLEYLDEKQRDPRIEASKVLLCHGELRSKSGHKLYIFLFQDILVLTRPVTRNERHSYQVYRQPIPVQELVLEDLQDGDVRMGGSFRGAFSNSEKAKNIFRIRFHDPSPAQSHTLQANDVFHKQQWFNCIRAAIAPFQSAGSPPELQGLPELHEECEGNHPSARKLTAQRRASTVSSVTQVEVDENAYRCGSGMQMAEDSKSLKTHQTQPGIRRARDKALSGGKRKETLV
notes: Net1, nuclear guanine nucleotide exchange factor, endogenous in human cancer cell lines, detected by immunoblot; source: endogenous, MCF-7 lysate; endogenous, HeLa lysate

Target: T1, GST-RhoB(17A), nucleotide free RhoB mutant (UniProt P62745 1-196, G17A)
T1 construct: RhoB, small GTPase of the Rho family, with the nucleotide-free mutation G17A; also called nucleotide-free mutant of RhoB; nucleotide-free Rho mutants (G17A)
Test: pull-down; 20 ug purified GST-RhoB(17A) on glutathione-sepharose beads, incubated with clarified MCF-7 lysates for 60 min at 4 C; cells mock-treated or irradiated with 5 Gy (also 400 uM 5-FU for 72 h); immunoblot for the GEFs
Settings: one partner purified

T1 sequence (P62745 whole entry G17A): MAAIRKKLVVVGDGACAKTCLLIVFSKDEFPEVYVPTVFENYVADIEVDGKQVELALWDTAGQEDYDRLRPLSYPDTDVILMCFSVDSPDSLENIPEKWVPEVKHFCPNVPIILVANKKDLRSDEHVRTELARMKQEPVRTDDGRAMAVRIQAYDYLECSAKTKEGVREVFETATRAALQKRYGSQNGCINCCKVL

Row | Binder | fold increase in binding after IR over mock-treated
1 | B1 | ≥ 5 fold
2 | B2 | ≥ 5 fold
